Measurements as given in article PMC8924070 (Frontiers in Immunology, 2022).

Experiments:
Conditions in all cases: both partners purified
[1] = biological target: T1, PD-1-ECD (PD-1-E. coli), extracellular domain of programmed cell death protein 1 expressed in E. coli (Homo sapiens, UniProt Q15116); assay: SPR; BIAcore8000, CM5 chip, room temperature; cemiplimab-scFv (695 RU) or camrelizumab-scFv (569 RU) immobilised; PD-1 forms flowed over (PD-1-WT 0-100 nM, PD-1-N58A 50-800 nM, PD-1-E. coli 0-8 μM); 1:1 Langmuir model
T1 construct: PD-1 (programmed cell death protein 1), extracellular domain, UniProt Q15116, residues L25-R147; no glycan, no post-translational modification; Cloned into pET-21a(+); also called non-glycosylated PD-1

[2] = biological target: T2, PD-1-E. coli, extracellular domain of PD-1 (residues L25-R147) expressed in E. coli (Homo sapiens, UniProt Q15116); assay: SPR; cemiplimab-scFv (695 RU) or camrelizumab-scFv (569 RU) immobilised on a CM5 chip, PD-1 forms flowed over (PD-1-WT 0-100 nM, PD-1-N58A 50-800 nM, PD-1-E. coli 0-8 uM); BIAcore 8000, room temperature; 1:1 Langmuir binding model; mean of three repeats
T2 construct: programmed cell death protein 1 (PD-1), extracellular domain, residues L25-R147 of UniProt Q15116; no glycans (E. coli); Cloned into pET-21a(+); also called PD-1-ECD; non-glycosylated PD-1

[3] = biological target: T3, PD-1-N58A, extracellular domain of PD-1 (residues L25-R147) with N58A, expressed in 293F cells (Homo sapiens, UniProt Q15116, N58A, glycosylated in 293F cells, specifically deficient in N58 glycosylation); assay: as above
T3 construct: programmed cell death protein 1 (PD-1), extracellular domain, residues L25-R147 of UniProt Q15116, N58A; also called N58A-mutated PD-1; N58 glycosylation-deficient PD-1; not shown: His6, C-terminal, kept
T3 sequence (Q15116 25-147 N58A): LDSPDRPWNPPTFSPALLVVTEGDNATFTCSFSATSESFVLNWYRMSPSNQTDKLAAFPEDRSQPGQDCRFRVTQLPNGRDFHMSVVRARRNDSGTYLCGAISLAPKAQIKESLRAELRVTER

T1 sequence (Q15116 25-147): as the sequence (Q15116 25-147 N58A) above, with A34N counted along it
T2 sequence (Q15116 25-147): as the sequence (Q15116 25-147 N58A) above, with A34N counted along it

| Binder | koff [2] [s⁻¹] | koff [3] [s⁻¹] | Kd [1] [nM] |
| --- | --- | --- | --- |
| camrelizumab-scFv (scFv, V domains shown, scFv of camrelizumab; Named only in the SPR methods) VH: EVQLVESGGGLVQPGGSLRLSCAASGFTFSSYMMSWVRQAPGKGLEWVATISGGGANTYYPDSVKGRFTISRDNAKNSLYLQMNSLRAEDTAVYYCARQLYYFDYWGQGTTVTVSS VL: DIQMTQSPSSLSASVGDRVTITCLASQTIGTWLTWYQQKPGKAPKLLIYTATSLADGVPSRFSGSGSGTDFTLTISSLQPEDFATYYCQQVYSIPWTFGGGTKVEIK | – | – | 2630 |
| cemiplimab-scFv (single-chain variable fragment of cemiplimab, VL-(GGGGS)4-VH) (scFv, V domains shown, VL of cemiplimab; linker, printed as GGGGS (4); VH of cemiplimab; Cloned into pET-21a(+); Used in the crystal and, by the SPR methods, immobilised on the CM5 chip; also called REGN2810; Libtayo) VH: EVQLLESGGVLVQPGGSLRLSCAASGFTFSNFGMTWVRQAPGKGLEWVSGISGGGRDTYFADSVKGRFTISRDNSKNTLYLQMNSLKGEDTAVYYCVKWGNIYFDYWGQGTLVTVSS VL: DIQMTQSPSSLSASVGDSITITCRASLSINTFLNWYQQKPGKAPNLLIYAASSLHGGVPSRFSGSGSGTDFTLTIRTLQPEDFATYYCQQSSNTPFTFGPGTVVDFR | – | – | 691 |

Second part, led by results:

| koff [2] [s⁻¹] | koff [3] [s⁻¹] | Binder | Kd [1] [nM] |
| --- | --- | --- | --- |
| 0.308 | 0.171 | camrelizumab-scFv (scFv, V domains shown, scFv of camrelizumab) VH: EVQLVESGGGLVQPGGSLRLSCAASGFTFSSYMMSWVRQAPGKGLEWVATISGGGANTYYPDSVKGRFTISRDNAKNSLYLQMNSLRAEDTAVYYCARQLYYFDYWGQGTTVTVSS VL: DIQMTQSPSSLSASVGDRVTITCLASQTIGTWLTWYQQKPGKAPKLLIYTATSLADGVPSRFSGSGSGTDFTLTISSLQPEDFATYYCQQVYSIPWTFGGGTKVEIK | – |
| 0.047 | 0.0274 | cemiplimab-scFv, single-chain variable fragment of cemiplimab (VL-(GGGGS)4-VH) (scFv, V domains shown, VL of cemiplimab; structure of the cemiplimab-scFv/PD-1 complex deposited as PDB 7WVM; linker, printed as GGGGS (4); VH of cemiplimab; Cloned into pET-21a(+); also called REGN2810; Libtayo) VH: EVQLLESGGVLVQPGGSLRLSCAASGFTFSNFGMTWVRQAPGKGLEWVSGISGGGRDTYFADSVKGRFTISRDNSKNTLYLQMNSLKGEDTAVYYCVKWGNIYFDYWGQGTLVTVSS VL: DIQMTQSPSSLSASVGDSITITCRASLSINTFLNWYQQKPGKAPNLLIYAASSLHGGVPSRFSGSGSGTDFTLTIRTLQPEDFATYYCQQSSNTPFTFGPGTVVDFR | – |
